Laboratory results from patent publication US20110217334A1.

Target: serum IgE of birch pollen allergic individuals
Test: ELISA inhibition, Bet v 1a immobilized, BM4 as inhibitor in serial dilutions

fold reduced patients' IgE binding capacity compared to Bet v 1a: 100 to 1000 fold
B1: BM4 (protein)
chain: GVFNYETETTSVIPAARLFKAFILDGDNLFPKVAPQAISSVENIEGNGGPGTIKKISFPEGFPFKYVKDRVDEVDHTNFKYNYSVIEGGPIGDTLEKISNEIKIVATPSGSTIKSISNKYHTKGDHEVKAEQVKASKEMGETLLRAVESYLLAHSDAYN
